Assay results from patent publication US20240424125A1 (Zymeworks, published 2024).
Where a chain is given by its changes, count along the chain named.

B1: v35356 (antibody, human IgG1, kappa, V domains shown)
VH: EVQLLESGGGLVQPGGSLRLSCAVSGFSLSSYGVSWVRQAPGKGLEWIGAVNSGGSAYYADSFKGRSTISRDNSKNTVYLQMNSLRAEDTAVYYCARSGSGYPMDYHPIWGQGTLVTVSS
VL: DYQMTQSPSSVSASVGDRVTITCRASQSIGDWLAWYQQKPGKAPKLLIYEASTLASGVPSRFSGSGSGTDFTLTISSVQPEDAATYYCQQGYGRWHILNIFGGGTKVEVKR
B2: v32596 (antibody, V domains shown)
VH: QSVKESEGGLFKPTDTLTLTCTVSGFSLSSYGVSWVRQAPGNGLEWIGAVNSGGSAYYANWAKSRSTITRNTNLFTVTLKMTSLAVADTATYFCARSGSGYPMDYLAIWGPGTLVTVSS
VL: AYDMTQTPASVEVAVGGTVTIKCQASQSIGDWLAWYQQKPGQPPRLLIYEASTLASGVPSRFSGSGSGTQFTLTISGVECADAATYYCQQGYGRSNVDNIFGGGTEVVVK
notes: One-armed antibody (OAA) format, said to be the equivalent of the FSA v23924; also called OAA v23924 equivalent; one-armed antibody equivalent of v23924
B3: v32597 (antibody, V domains shown)
VH: B1 VH with F63V, H107L, P108A
VL: DYQMTQSPSSVSASVGDRVTITCRASQSIGDWLAWYQQKPGKAPKLLIYEASTLASGVPSRFSGSGSGTDFTLTISSVQPEDAATYYCQQGYGRSNVDNIFGGGTKVEVK
notes: One-armed antibody (OAA) format, equivalent of v30384; also called OAA v30384 equivalent; one-armed antibody equivalent of v30384
B4: v32598 (antibody, V domains shown)
VH: B1 VH with L4V, S62W, F63A, H107L, P108A
VL: B3 VL
notes: One-armed antibody (OAA) format, equivalent of v30399; also called OAA v30399 equivalent; one-armed antibody equivalent of v30399
B5: v30389 (antibody, human IgG1, kappa)
heavy 1: EVQVLESGGGLVQPGGSLRLSCAVSGFSLSSYGVSWVRQAPGKGLEWIGAVNSGGSAYYADSVKGRSTISRDNSKNTVYLQMNSLRAEDTAVYYCARSGSGYPMDYLAIWGQGTLVTVSSASTKGPSVFPLAPSSKSTSGGTAALGCLVKDYFPEPVTVSWNSGALTSGVHTFPAVLQSSGLYSLSSVVTVPSSSLGTQTYICNVNHKPSNTKVDKKVEPKSCDKTHTCPPCPAPELLGGPSVFLFPPKPKDTLMISRTPEVTCVVVDVSHEDPEVKFNWYVDGVEVHNAKTKPREEQYNSTYRVVSVLTVLHQDWLNGKEYKCKVSNKALPAPIEKTISKAKGQPREPQVYVYPPSRDELTKNQVSLTCLVKGFYPSDIAVEWESNGQPENNYKTTPPVLDSDGSFALVSKLTVDKSRWQQGNVFSCSVMHEALHNHYTQKSLSLSPG
heavy 2: not shown
light: DYQMTQSPSSVSASVGDRVTITCRASQSIGDWLAWYQQKPGKAPKLLIYEASTLASGVPSRFSGSGSGTDFTLTISSVQPEDAATYYCQQGYGRSNVDNIFGGGTKVEVKRTVAAPSVFIFPPSDEQLKSGTASVVCLLNNFYPREAKVQWKVDNALQSGNSQESVTEQDSKDSTYSLSSTLTLSKADYEKHKVYACEVTHQGLSSPVTKSFNRGEC
notes: Humanized IgG1/kappa, HetFc; also called 3bH4L
B6: v31422 (antibody, human IgG1, kappa)
heavy: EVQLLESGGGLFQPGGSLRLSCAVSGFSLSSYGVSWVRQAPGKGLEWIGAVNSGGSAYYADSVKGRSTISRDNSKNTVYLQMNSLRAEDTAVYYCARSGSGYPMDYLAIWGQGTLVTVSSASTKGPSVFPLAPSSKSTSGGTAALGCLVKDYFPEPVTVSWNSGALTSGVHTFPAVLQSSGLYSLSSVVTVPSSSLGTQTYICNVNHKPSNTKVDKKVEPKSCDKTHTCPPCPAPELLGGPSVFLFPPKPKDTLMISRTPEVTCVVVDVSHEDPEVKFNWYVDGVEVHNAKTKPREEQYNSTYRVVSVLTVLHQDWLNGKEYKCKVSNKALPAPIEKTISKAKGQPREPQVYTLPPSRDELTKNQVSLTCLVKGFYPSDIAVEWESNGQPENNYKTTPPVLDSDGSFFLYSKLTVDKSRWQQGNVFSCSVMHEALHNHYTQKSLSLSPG
light: B5 light
notes: Humanized IgG1/kappa, HomoFc; also called 3cH4L
B7: v31423 (antibody, human IgG1, kappa, V domains shown)
VH: B1 VH with F63V, N73T, H107L, P108A
VL: B1 VL with W95S, H96N, I97V, L98D
notes: Humanized IgG1/kappa, HomoFc; also called 3dH4L
B8: v31424 (antibody, human IgG1, kappa)
heavy: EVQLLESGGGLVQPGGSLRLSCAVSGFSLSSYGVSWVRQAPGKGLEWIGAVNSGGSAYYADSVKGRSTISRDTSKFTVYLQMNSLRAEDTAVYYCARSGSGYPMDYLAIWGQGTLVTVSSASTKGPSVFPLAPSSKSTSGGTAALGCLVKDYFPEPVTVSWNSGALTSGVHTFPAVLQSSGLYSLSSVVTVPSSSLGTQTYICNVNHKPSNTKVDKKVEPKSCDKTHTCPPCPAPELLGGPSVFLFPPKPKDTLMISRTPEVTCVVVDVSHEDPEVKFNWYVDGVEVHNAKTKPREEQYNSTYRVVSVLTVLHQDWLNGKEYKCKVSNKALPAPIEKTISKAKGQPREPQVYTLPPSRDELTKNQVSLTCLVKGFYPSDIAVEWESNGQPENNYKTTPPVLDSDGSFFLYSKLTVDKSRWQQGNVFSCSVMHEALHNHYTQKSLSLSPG
light: B5 light
notes: Humanized IgG1/kappa, HomoFc; also called 3eH4L
B9: v31425 (antibody, human IgG1, kappa)
heavy: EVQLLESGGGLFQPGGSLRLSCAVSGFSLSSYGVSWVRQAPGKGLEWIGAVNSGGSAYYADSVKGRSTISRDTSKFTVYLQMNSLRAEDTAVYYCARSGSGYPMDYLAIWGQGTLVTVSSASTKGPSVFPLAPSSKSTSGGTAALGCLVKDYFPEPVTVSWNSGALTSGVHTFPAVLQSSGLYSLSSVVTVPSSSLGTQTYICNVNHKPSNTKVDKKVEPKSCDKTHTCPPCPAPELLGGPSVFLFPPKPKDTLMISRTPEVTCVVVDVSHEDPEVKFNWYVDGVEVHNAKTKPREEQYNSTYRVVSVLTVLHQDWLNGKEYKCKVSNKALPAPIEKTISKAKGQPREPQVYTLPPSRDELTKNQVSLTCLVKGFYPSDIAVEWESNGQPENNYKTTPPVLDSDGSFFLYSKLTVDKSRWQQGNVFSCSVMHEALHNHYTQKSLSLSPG
light: B5 light
notes: Humanized IgG1/kappa, HomoFc; also called 3fH4L
B10: v35350 (antibody, human IgG1, kappa, V domains shown)
VH: B1 VH with S31L
VL: B1 VL with G30W, D31Y
B11: v35342 (antibody, human IgG1, kappa, V domains shown)
VH: B1 VH with S31L, A50S, V51L, F63V, H107L, P108A
VL: B1 VL with G30W, D31Y
B12: v35354 (antibody, human IgG1, kappa, V domains shown)
VH: B1 VH with S31L, H107L, P108A
VL: B1 VL with G30W, D31Y
B13: v35347 (antibody, human IgG1, kappa, V domains shown)
VH: B1 VH with S31L
VL: B1 VL with W95S, H96N, I97V, L98D
B14: v35358 (antibody, human IgG1, kappa, V domains shown)
VH: B1 VH
VL: B1 VL with G30W, D31Y
B15: v36167 (antibody, human IgG1, kappa, V domains shown)
VH: B1 VH with H107L, P108A
VL: B1 VL with G30W, D31Y
B16: v36168 (antibody, human IgG1, kappa, V domains shown)
VH: B1 VH with S31L, A50S, F63V, H107L, P108A
VL: B1 VL with G30W, D31Y
B17: Palivizumab (anti-RSV) (v22277) (antibody, V domains shown)
VH: QVTLRESGPALVKPTQTLTLTCTFSGFSLSTSGMSVGWIRQPPGKALEWLADIWWDDKKDYNPSLKSRLTISKDTSKNQVVLKVTNMDPADTATYYCARSMITNWYFDVWGAGTTVTVSS
VL: DIQMTQSPSTLSASVGDRVTITCKCQLSVGYMHWYQQKPGKAPKLLIYDTSKLASGVPSRFSGSGSGTEFTLTISSLQPDDFATYYCFQGSGYPFTFGGGTKLEIK

biological target: T1, human FRα on cells (human, UniProt P15328 25-234); assay: apparent Kd, flow cytometry on JEG-3 cells (endogenous FRα), as in Example 16
T1 construct: Transiently expressed on HEK293-6e, CHO-S or HEK293 microarray cells, or endogenous on JEG-3, HEC-1-A, IGROV-1, OVCAR-3, H2110, KB-HeLa and T-47D cells; also called human folate receptor alpha; FOLR1
T1 sequence (P15328 25-234 limits assumed): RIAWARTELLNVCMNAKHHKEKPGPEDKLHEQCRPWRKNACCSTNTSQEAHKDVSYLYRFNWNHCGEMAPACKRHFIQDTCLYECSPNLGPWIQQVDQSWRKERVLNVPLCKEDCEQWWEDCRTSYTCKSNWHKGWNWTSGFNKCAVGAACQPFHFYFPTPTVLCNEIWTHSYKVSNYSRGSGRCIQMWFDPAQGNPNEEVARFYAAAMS
Method: (§1) Briefly, cells were seeded at 50,000 cells/well in V-bottom 96-well plates and treated with antibody for 24 hours at 4° C. to prevent internalization. […] Following incubation and washing, fluorescence was detected by flow cytometry on a BD LSRFortessa™ Cell Analyzer (BD Biosciences, Franklin Lake, NJ) with 1,000 minimum events collected per well. AF647/APC-A GeoMean (fluorescence signal geometric mean, proportional to anti-Human AF647 binding) in live cell population was plotted using GraphPad Prism Version 9 (GraphPad Software, San Diego, CA).

| Binder | Kd [nM] |
| --- | --- |
| B1 | 0.44 |

biological target: T2, recombinant His-tagged human FRα (ACROBiosystems) (human, UniProt P15328 25-233); assay: SPR (Biacore T200): hFRα amine-coupled to CM5 chip at high antigen density, one-armed antibody injected, 1:1 Langmuir fit, mean of n=2
T2 construct: also called hFRα; hFRα antigen; not shown: His tag
T2 sequence (P15328 25-233 limits assumed): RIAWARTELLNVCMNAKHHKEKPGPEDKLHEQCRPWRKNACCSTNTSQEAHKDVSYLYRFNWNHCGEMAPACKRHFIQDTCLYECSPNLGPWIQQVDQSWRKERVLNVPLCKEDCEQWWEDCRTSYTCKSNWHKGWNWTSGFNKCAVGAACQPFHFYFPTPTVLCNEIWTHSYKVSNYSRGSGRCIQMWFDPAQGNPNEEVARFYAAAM
Method: (§2) CM5 Series S sensor chip, Biacore™ amine coupling kit (NHS, EDC and 1 M ethanolamine), and 10 mM sodium acetate buffers were purchased from GE Healthcare Life Science (Mississauga, ON, Canada). PBS running buffer with 0.05% Tween20 (PBST) was purchased from Teknova Inc. (Hollister, CA). Recombinant human FRα was purchased from ACRObiosystems (Newark, DE).
(§3) Screening of the variants for binding to hFRα antigen was conducted in two steps: capture of hFRα onto surface, followed by injection of three to five concentrations of variant. The hFRα surface was prepared on a CM5 Series S sensor chip by standard amine coupling methods as described by the manufacturer (GE Healthcare Life Science, Mississauga, ON, Canada). The immobilization of the hFRα was performed using Biacore™ T200 immobilization wizard with an amine coupling method aiming for resonance units (RUs) ranging from 5 to 200 RUs. Using multi-cycle kinetics, three to five concentrations of a two-fold dilution series of samples starting at 300 nM with a blank buffer control were injected at 50 uL/min for 180s with a 600s dissociation phase, resulting in a set of sensorgrams with a buffer blank reference. The hFRα surface was regenerated to prepare for the next injection cycle by one pulse of 10 mM glycine/HCl pH 1.5 for 30s at 30 uL/min. Blank-subtracted sensorgrams were analyzed using Biacore™ T200 Evaluation Software v3.0. The blank-subtracted sensorgrams were then fit to the 1:1 Langmuir binding model.

| Binder | Kd [nM] |
| --- | --- |
| B2 | 30 |
| B3 | 143 |
| B4 | 82 |

biological target: T2, recombinant His-tagged human FRα …; assay: BLI (Octet RED96): antibody on anti-human IgG Fc capture biosensor, His-tagged hFRα as analyte, 1:1 global fit, mean of n=2
Method: (§4) The assay buffer used was KB buffer (kinetics buffer, composed of PBS pH 7.4, 0.1% BSA, 0.02% Tween 20, 0.05% sodium azide) supplemented with 0.06% Tween 20 and in some instances also with 1% BSA. The experiment was conducted at 30° C. with a shake speed of 1000 rpm.
(§5) Data analysis was performed using Data Analysis Software 9.0 (ForteBio, Fremont CA). The reference-subtracted binding curves were globally fitted to the 1:1 interaction model to generate the binding kinetic parameters kₒₙ, koff, and the dissociation constant KD.

| Binder | Kd [nM] |
| --- | --- |
| B5 | 100 |
| B6 | 180 |
| B7 | 110 |
| B8 | 110 |
| B9 | 160 |

biological target: T1, human FRα on cells; assay: apparent Kd, flow cytometry on IGROV-1 cells (endogenous FRα), as in Example 16
Method: as §1

| Binder | Kd [nM] |
| --- | --- |
| B1 | 1.31 |

biological target: T2, recombinant His-tagged human FRα …; assay: BLI (Octet RED96) as in Example 8: antibody captured, His-tagged hFRα as analyte, mean of n=2
Method: as §4, §5

| Binder | Kd [nM] |
| --- | --- |
| B10 | 3.55 |
| B11 | 4.1 |
| B12 | 3.13 |
| B13 | 8.65 |
| B14 | 7.22 |
| B1 | 4.98 |
| B15 | 7.29 |
| B16 | 4.97 |

biological target: T1, human FRα on cells; assay: apparent Kd, flow cytometry, CHO-S cells transiently expressing human FRα, 24 h at 4°C
Method: Briefly, CHO-S cells were transfected for −24 hours to transiently express human or cynomolgus monkey FRα, 1 ug DNA per 1 million cells. Following transfection, cells were seeded at 50,000 cells/well in V-bottom 96-well plates and treated with antibody for 24 hours at 4° C. to prevent internalization. […] Following incubation and washing, fluorescence was detected by flow cytometry on a BD LSRFortessa™ Cell Analyzer (BD Biosciences, Franklin Lake, NJ).

| Binder | Kd [nM] |
| --- | --- |
| B17 | > 50 |

biological target: T2, recombinant His-tagged human FRα …; assay: SPR (Biacore T200): hFRα amine-coupled to CM5 chip at medium antigen density, one-armed antibody injected, 1:1 Langmuir fit, mean of n=2
Method: as §2, §3

| Binder | Kd [nM] |
| --- | --- |
| B2 | 30.3 |
| B3 | 139 |
| B4 | 80.8 |

biological target: T2, recombinant His-tagged human FRα …; assay: SPR (Biacore T200): hFRα amine-coupled to CM5 chip at medium-low antigen density, one-armed antibody injected, 1:1 Langmuir fit, mean of n=2
Method: as §2, §3

| Binder | Kd [nM] |
| --- | --- |
| B2 | 37.9 |
| B3 | 146 |
| B4 | 91.5 |
